The values that follow come from PMC10798875 (The Journal of Cell Biology, 2024).

Assay [1] concerns the target karyopherinα (Kapα; importinα1; KPNA2), full-length human (human, UniProt P52292 1-529). In words: MST.
Assay [2] has as its target RanGTP (wild-type Ran loaded with GTP) (UniProt P62826 1-216). In words: MST.

B1: ∆40NCAS (CAS lacking the first 40 amino acids of the N-terminus) (domain or fragment)
chain: NYPLLLLTLLEKSQDNVIKVCASVTFKNYIKRNWRIVEDEPNKICEADRVAIKANIVHLMLSSPEQIQKQLSDAISIIGREDFPQKWPDLLTEMVNRFQSGDFHVINGVLRTAHSLFKRYRHEFKSNELWTEIKLVLDAFALPLTNLFKATIELCSTHANDASALRILFSSLILISKLFYSLNFQDLPEFFEDNMETWMNNFHTLLTLDNKLLQTDDEEEAGLLELLKSQICDNAALYAQKYDEEFQRYLPRFVTAIWNLLVTTGQEVKYDLLVSNAIQFLASVCERPHYKNLFEDQNTLTSICEKVIVPNMEFRAADEEAFEDNSEEYIRRDLEGSDIDTRRRAACDLVRGLCKFFEGPVTGIFSGYVNSMLQEYAKNPSVNWKHKDAAIYLVTSLASKAQTQKHGITQANELVNLTEFFVNHILPDLKSANVNEFPVLKADGIKYIMIFRNQVPKEHLLVSIPLLINHLQAESIVVHTYAAHALERLFTMRGPNNATLFTAAEIAPFVEILLTNLFKALTLPGSSENEYIMKAIMRSFSLLQEAIIPYIPTLITQLTQKLLAVSKNPSKPHFNHYMFEAICLSIRITCKANPAAVVNFEEALFLVFTEILQNDVQEFIPYVFQVMSLLLETHKNDIPSSYMALFPHLLQPVLWERTGNIPALVRLLQAFLERGSNTIASAAADKIPGLLGVFQKLIASKANDHQGFYLLNSIIEHMPPESVDQYRKQIFILLFQRLQNSKTTKFIKSFLVFINLYCIKYGALALQEIFDGIQPKMFGMVLEKIIIPEIQKVSGNVEKKICAVGITKLLTECPPMMDTEYTKLWTPLLQSLIGLFELPEDDTIPDEEHFIDIEDTPGYQTAFSQLAFAGKKEHDPVGQMVNNPKIHLAQSLHKLSTACPGRVPSMVSTSLNAEALQYLQGYLQAASVTLL
With B1, the binding result in assay [1] was “binds”.

B2: cellular apoptosis susceptibility protein (CAS), human wild type (natural protein)
chain: MELSDANLQTLTEYLKKTLDPDPAIRRPAEKFLESVEGNQNYPLLLLTLLEKSQDNVIKVCASVTFKNYIKRNWRIVEDEPNKICEADRVAIKANIVHLMLSSPEQIQKQLSDAISIIGREDFPQKWPDLLTEMVNRFQSGDFHVINGVLRTAHSLFKRYRHEFKSNELWTEIKLVLDAFALPLTNLFKATIELCSTHANDASALRILFSSLILISKLFYSLNFQDLPEFFEDNMETWMNNFHTLLTLDNKLLQTDDEEEAGLLELLKSQICDNAALYAQKYDEEFQRYLPRFVTAIWNLLVTTGQEVKYDLLVSNAIQFLASVCERPHYKNLFEDQNTLTSICEKVIVPNMEFRAADEEAFEDNSEEYIRRDLEGSDIDTRRRAACDLVRGLCKFFEGPVTGIFSGYVNSMLQEYAKNPSVNWKHKDAAIYLVTSLASKAQTQKHGITQANELVNLTEFFVNHILPDLKSANVNEFPVLKADGIKYIMIFRNQVPKEHLLVSIPLLINHLQAESIVVHTYAAHALERLFTMRGPNNATLFTAAEIAPFVEILLTNLFKALTLPGSSENEYIMKAIMRSFSLLQEAIIPYIPTLITQLTQKLLAVSKNPSKPHFNHYMFEAICLSIRITCKANPAAVVNFEEALFLVFTEILQNDVQEFIPYVFQVMSLLLETHKNDIPSSYMALFPHLLQPVLWERTGNIPALVRLLQAFLERGSNTIASAAADKIPGLLGVFQKLIASKANDHQGFYLLNSIIEHMPPESVDQYRKQIFILLFQRLQNSKTTKFIKSFLVFINLYCIKYGALALQEIFDGIQPKMFGMVLEKIIIPEIQKVSGNVEKKICAVGITKLLTECPPMMDTEYTKLWTPLLQSLIGLFELPEDDTIPDEEHFIDIEDTPGYQTAFSQLAFAGKKEHDPVGQMVNNPKIHLAQSLHKLSTACPGRVPSMVSTSLNAEALQYLQGYLQAASVTLL
In the case of B2, the equilibrium dissociation constant (Kd) (commonly the concentration at which binding is half-saturated) in assay [2] came to 1400 ± 400 nM; in assay [1], 9.3 ± 2.9 nM.
